Measured values taken from article PMC3819411.

Target: Bardet-Biedl syndrome 5 protein (BBS5), endogenous in bovine rod outer segments (bovine (endogenous in rod outer segments))
Test: co-IP

arrestin1 (Arr1), endogenous in bovine rod outer segments (from UniProt P08168 1-404) (natural protein)
reduction of co-precipitated Arr1 after light or phorbol ester against dark: 50%
